Reference: paper PMC9845754

Target: taxol-stabilized microtubules polymerized from porcine brain tubulin (porcine) (UniProt P02550)
Test: co-sedimentation; 0, 1, 2, 4, 6, 8 or 10 µM ICR2-His6 added to taxol-stabilized microtubules (5 µM tubulin) in PEMT (100 mM PIPES, 1 mM EGTA, 1 mM MgCl2, 1 mM GTP, 20 µM taxol, pH 6.9); 100,000 g, 25°C, 15 min; SDS-PAGE, Coomassie, densitometry

**Q.** With “ICR2-His6 (from UniProt Q9ZQC5 56-583) (natural protein)” as the substance, how does the stoichiometry N (mol ICR2-His6 per mole of tubulin) read?
**A.** 0.85
